In series [1] the target is T1, S-adenosyl-L-homocysteine hydrolase (SAHase) from Alcaligenes faecalis (IFO 12669) (Alcaligenes faecalis, UniProt A0A2U2BLR9).
T1 sequence (A0A2U2BLR9 1-465): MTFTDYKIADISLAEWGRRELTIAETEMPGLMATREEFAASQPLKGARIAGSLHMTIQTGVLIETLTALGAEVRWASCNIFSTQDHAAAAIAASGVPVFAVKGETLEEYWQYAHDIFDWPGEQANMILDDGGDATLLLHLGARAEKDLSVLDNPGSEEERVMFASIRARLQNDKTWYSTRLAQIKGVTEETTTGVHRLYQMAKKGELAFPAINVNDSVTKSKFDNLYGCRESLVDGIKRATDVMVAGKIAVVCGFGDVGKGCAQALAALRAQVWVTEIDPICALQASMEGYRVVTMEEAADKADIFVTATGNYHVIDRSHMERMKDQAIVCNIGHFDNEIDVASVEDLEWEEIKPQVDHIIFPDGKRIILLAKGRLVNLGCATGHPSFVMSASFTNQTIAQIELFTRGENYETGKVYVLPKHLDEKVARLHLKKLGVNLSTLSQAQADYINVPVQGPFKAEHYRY
To be noted: read-out: Km for SAH; purified crystalline SAHase of Example 1.

Substrate in series [2]: N[C@@H](CCS)C(=O)O
Briefly: purified protein, by the assay type. To be noted: other: purified crystalline SAHase of Example 1.

Substrate in series [3]: Nc1ncnc2c1ncn2[C@@H]1O[C@H](CO)[C@@H](O)[C@H]1O
Briefly: purified protein, by the assay type. To be noted: other: purified crystalline SAHase of Example 1.

These results are taken from patent US4609626A, “Method for producing S-adenosyl-L-homocysteine hydrolase” (Nippon Zeon Co., Ltd., priority 1983, dated 1986).

Broadly, the Km is the concentration of substrate that gives half-maximal velocity. As to `Nc1ncnc2c1ncn2[C@@H]1O[C@H](CSCC[C@H](N)C(=O)O)[C@@H](O)[C@H]1O` [SAH, S-adenosyl-L-homocysteine], the Km in series [1] stood at 10 µM.

B1: S-adenosyl-L-homocysteine hydrolase (SAHase) from Alcaligenes faecalis (IFO 12669) (Alcaligenes faecalis) (protein)
chain: T1 sequence (A0A2U2BLR9 1-465)
In the case of B1, the Km in series [2] was determined as 930 µM; in series [3] it was 37 µM.
